Measured values published in FireProtDB (doi:10.1021/acs.biochem.7b00833).
“And” between values parts separate entries of the source, which are not always exact repeats. Equal values may be shown once.

B1: SCO1 protein homolog, P54178 (parent)
chain: MKVIKGLTAGLIFLFLCACGGQQIKDPLNYEVEPFTFQNQDGKNVSLESLKGEVWLADFIFTNCETICPPMTAHMTDLQKKLKAENIDVRIISFSVDPENDKPKQLKKFAANYPLSFDNWDFLTGYSQSEIEEFALKSFKAIVKKPEGEDQVIHQSSFYLVGPDGKVLKDYNGVENTPYDDIISDVKSASTLK

Variants of: B1
Conditions: Bacillus subtilis (strain 168), pH 7, CD, Sodium Phosphate Buffer, structure 1XZO, whole UniProt chain shown; for ddG of mutation (higher = less stable) / denaturant m value / denaturant midpoint (higher = more stable) / unfolding free energy: 25 °C, Urea

Variant | ddG of mutation (higher = less stable) [kcal/mol] | denaturant m value [kcal/mol/M] | denaturant midpoint (higher = more stable) [M] | unfolding free energy [kcal/mol] | Tm (Thermal) [°C] | change of melting temperature, mutant - wild type (higher = more stable) (Thermal)
MKVIKGLTAGLIFLFLCACGGQQIKDPLNYEVEPFTFQNQDGKNVSLESLKGEVWLADFIFTNCETICPPMTAHMTDLQKKLKAENIDVRIISFSVDPENDKPKQLKKFAANYPLSFDNFDFLTGYSQSEIEEFALKSFKAIVKKPEGEDQVIHQSSFYLVGPDGKVLKDYNGVENTPYDDIISDVKSASTLK [W120F] | 2.89 | 3.93 | 1.77 | 7.04 | 43.5 | 
MKVIKGLTAGLIFLFLCACGGQQIKDPLNYEVEPFTFQNQDGKNVSLESLKGEVALADFIWTNCETICPPMTAHMTDLQKKLKAENIDVRIISFSVDPENDKPKQLKKFAANYPLSFDNADFLTGYSQSEIEEFALKSFKAIVKKPEGEDQVIHQSSFYLVGPDGKVLKDYNGVENTPYDDIISDVKSASTLK [W55A W120A F61W] |  |  |  |  |  | -18 °C and -15.7 °C
MKVIKGLTAGLIFLFLCACGGQQIKDPLNYEVEPFTFQNQDGKNVSLESLKGEVALADFIFTNCETICPPMTAHMTDLQKKLKAENIDVRIISFSVDPENDKPKQLKKFAANYPLSFDNWDFLTGYSQSEIEEFALKSFKAIVKKPEGEDQVIHQSSFYLVGPDGKVLKDYNGVENTPYDDIISDVKSASTLK [W55A] | 8.93 | 1.92 | 0.75 | 1 |  | 
MKVIKGLTAGLIFLFLCACGGQQIKDPLNYEVEPFTFQNQDGKNVSLESLKGEVWLADFIWTNCETICPPMTAHMTDLQKKLKAENIDVRIISFSVDPENDKPKQLKKFAANYPLSFDNWDFLTGYSQSEIEEFALKSFKAIVKKPEGEDQVIHQSSFYLVGPDGKVLKDYNGVENTPYDDIISDVKSASTLK [F61W] | -2.87 | 4.24 |  | 12.8 |  | 4.3 °C and -0.6 °C
MKVIKGLTAGLIFLFLCACGGQQIKDPLNYEVEPFTFQNQDGKNVSLESLKGEVFLADFIWTNCETICPPMTAHMTDLQKKLKAENIDVRIISFSVDPENDKPKQLKKFAANYPLSFDNWDFLTGYSQSEIEEFALKSFKAIVKKPEGEDQVIHQSSFYLVGPDGKVLKDYNGVENTPYDDIISDVKSASTLK [W55F F61W] | 4.14 | 3.37 | 1.72 | 5.79 |  | -6.2 °C and -9.1 °C
MKVIKGLTAGLIFLFLCACGGQQIKDPLNYEVEPFTFQNQDGKNVSLESLKGEVWLADFIWTNCETICPPMTAHMTDLQKKLKAENIDVRIISFSVDPENDKPKQLKKFAANYPLSFDNFDFLTGYSQSEIEEFALKSFKAIVKKPEGEDQVIHQSSFYLVGPDGKVLKDYNGVENTPYDDIISDVKSASTLK [W120F F61W] | 4.18 | 3.17 | 1.81 | 5.75 |  | -7.1 °C and -11.5 °C
MKVIKGLTAGLIFLFLCACGGQQIKDPLNYEVEPFTFQNQDGKNVSLESLKGEVALADFIWTNCETICPPMTAHMTDLQKKLKAENIDVRIISFSVDPENDKPKQLKKFAANYPLSFDNWDFLTGYSQSEIEEFALKSFKAIVKKPEGEDQVIHQSSFYLVGPDGKVLKDYNGVENTPYDDIISDVKSASTLK [W55A F61W] | 8.03 | 3.74 | 0.8 | 1.9 |  | 
